The record followed here is IntAct's records for PubMed 25502805.

The chains are these.
B1: Mothers against decapentaplegic homolog 4 (Homo sapiens), Q13485 (parent)
chain: MDNMSITNTPTSNDACLSIVHSLMCHRQGGESETFAKRAIESLVKKLKEKKDELDSLITAITTNGAHPSKCVTIQRTLDGRLQVAGRKGFPHVIYARLWRWPDLHKNELKHVKYCQYAFDLKCDSVCVNPYHYERVVSPGIDLSGLTLQSNAPSSMMVKDEYVHDFEGQPSLSTEGHSIQTIQHPPSNRASTETYSTPALLAPSESNATSTANFPNIPVASTSQPASILGGSHSEGLLQIASGPQPGQQQNGFTGQPATYHHNSTTTWTGSRTAPYTPNLPHHQNGHLQHHPPMPPHPGHYWPVHNELAFQPPISNHPAPEYWCSIAYFEMDVQVGETFKVPSSCPIVTVDGYVDPSGGDRFCLGQLSNVHRTEAIERARLHIGKGVQLECKGEGDVWVRCLSDHAVFVQSYYLDREAGRAPGDAVHKIYPSAYIKVFDLRQCHRQMQQQAATAQAAAAAQAAAVAGNIPGPGSVGGIAPAISLSAAAGIGVDDLRRLCILRMSFVKGWGPDYPRQSIKETPCWIEIHLHRALQLLDEVLHTMPIADPQPLD
B2: Cyclin-dependent kinase 4 (Homo sapiens), P11802 (parent)
chain: MATSRYEPVAEIGVGAYGTVYKARDPHSGHFVALKSVRVPNGGGGGGGLPISTVREVALLRRLEAFEHPNVVRLMDVCATSRTDREIKVTLVFEHVDQDLRTYLDKAPPPGLPAETIKDLMRQFLRGLDFLHANCIVHRDLKPENILVTSGGTVKLADFGLARIYSYQMALTPVVVTLWYRAPEVLLQSTYATPVDMWSVGCIFAEMFRRKPLFCGNSEADQLGKIFDLIGLPPEDDWPRDVSLPRGAFPPRGPRPVQSVVPEMEESGAQLLLEMLTFNPHKRISAFRALQHSYLHKDEGNPE
B3: Interleukin-1 receptor-associated kinase 4 (Homo sapiens), Q9NWZ3 (parent)
chain: MNKPITPSTYVRCLNVGLIRKLSDFIDPQEGWKKLAVAIKKPSGDDRYNQFHIRRFEALLQTGKSPTSELLFDWGTTNCTVGDLVDLLIQNEFFAPASLLLPDAVPKTANTLPSKEAITVQQKQMPFCDKDRTLMTPVQNLEQSYMPPDSSSPENKSLEVSDTRFHSFSFYELKNVTNNFDERPISVGGNKMGEGGFGVVYKGYVNNTTVAVKKLAAMVDITTEELKQQFDQEIKVMAKCQHENLVELLGFSSDGDDLCLVYVYMPNGSLLDRLSCLDGTPPLSWHMRCKIAQGAANGINFLHENHHIHRDIKSANILLDEAFTAKISDFGLARASEKFAQTVMTSRIVGTTAYMAPEALRGEITPKSDIYSFGVVLLEIITGLPAVDEHREPQLLLDIKEEIEDEEKTIEDYIDKKMNDADSTSVEAMYSVASQCLHEKKNKRPDIKKVQQLLQEMTAS
B4: Barrier-to-autointegration factor (Homo sapiens), O75531 (parent)
chain: MTTSQKHRDFVAEPMGEKPVGSLAGIGEVLGKKLEERGFDKAYVVLGQFLVLKKDEDLFREWLKDTCGANAKQSRDCFGCLREWCDAFL
partner: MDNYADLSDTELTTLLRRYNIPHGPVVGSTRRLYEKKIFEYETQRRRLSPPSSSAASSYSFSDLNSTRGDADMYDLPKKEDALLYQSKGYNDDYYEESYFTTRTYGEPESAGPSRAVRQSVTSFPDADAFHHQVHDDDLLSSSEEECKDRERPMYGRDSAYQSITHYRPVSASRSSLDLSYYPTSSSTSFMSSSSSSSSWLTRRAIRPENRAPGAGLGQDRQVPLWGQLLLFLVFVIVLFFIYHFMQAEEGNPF
B5: Kelch-like protein 3 (Homo sapiens), Q9UH77 (parent)
chain: MEGESVKLSSQTLIQAGDDEKNQRTITVNPAHMGKAFKVMNELRSKQLLCDVMIVAEDVEIEAHRVVLAACSPYFCAMFTGDMSESKAKKIEIKDVDGQTLSKLIDYIYTAEIEVTEENVQVLLPAASLLQLMDVRQNCCDFLQSQLHPTNCLGIRAFADVHTCTDLLQQANAYAEQHFPEVMLGEEFLSLSLDQVCSLISSDKLTVSSEEKVFEAVISWINYEKETRLEHMAKLMEHVRLPLLPRDYLVQTVEEEALIKNNNTCKDFLIEAMKYHLLPLDQRLLIKNPRTKPRTPVSLPKVMIVVGGQAPKAIRSVECYDFEEDRWDQIAELPSRRCRAGVVFMAGHVYAVGGFNGSLRVRTVDVYDGVKDQWTSIASMQERRSTLGAAVLNDLLYAVGGFDGSTGLASVEAYSYKTNEWFFVAPMNTRRSSVGVGVVEGKLYAVGGYDGASRQCLSTVEQYNPATNEWIYVADMSTRRSGAGVGVLSGQLYATGGHDGPLVRKSVEVYDPGTNTWKQVADMNMCRRNAGVCAVNGLLYVVGGDDGSCNLASVEYYNPVTDKWTLLPTNMSTGRSYAGVAVIHKSL

In one assay the parent is B1. The settings on record: with smad3_human SMAD3, P84022.
Chain of smad3_human SMAD3, P84022 (P84022 whole entry, looked up): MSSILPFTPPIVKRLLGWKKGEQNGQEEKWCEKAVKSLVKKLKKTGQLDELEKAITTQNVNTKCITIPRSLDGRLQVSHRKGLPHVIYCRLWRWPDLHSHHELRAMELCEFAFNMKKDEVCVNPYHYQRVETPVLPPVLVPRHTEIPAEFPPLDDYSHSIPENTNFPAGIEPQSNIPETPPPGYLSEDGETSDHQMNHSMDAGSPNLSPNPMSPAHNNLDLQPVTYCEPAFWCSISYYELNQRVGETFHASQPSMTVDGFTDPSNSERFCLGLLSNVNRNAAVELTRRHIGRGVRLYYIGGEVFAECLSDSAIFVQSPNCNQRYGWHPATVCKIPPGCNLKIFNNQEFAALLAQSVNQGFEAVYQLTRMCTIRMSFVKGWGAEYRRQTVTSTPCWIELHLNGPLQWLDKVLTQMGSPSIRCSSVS
G352R: the “effect of a mutation on the interaction” value is on record as “disrupting interaction strength”.

For L533R, the “effect of a mutation on the interaction” value is recorded as “disrupting interaction strength”.

With C324R, the “effect of a mutation on the interaction” value is “disrupting interaction strength”.

Regarding V350D, the “effect of a mutation on the interaction” value is given as “disrupting interaction strength”.

For the variant E330K, the “effect of a mutation on the interaction” value is “disrupting interaction strength”.

The next assay covers variants of B1. The note with it: with smad3_human SMAD3, P84022. This is another data set of the same source.
As to N13S, the “effect of a mutation on the interaction” value is recorded as “with no effect”.

Regarding R361C, the “effect of a mutation on the interaction” value is “disrupting interaction strength”.

Consider Y353S, for which the “effect of a mutation on the interaction” value was “disrupting interaction strength”.

The variants in the next assay derive from B1. The note with it: with smad9_human SMAD9, O15198.
Chain of smad9_human SMAD9, O15198 (O15198 whole entry): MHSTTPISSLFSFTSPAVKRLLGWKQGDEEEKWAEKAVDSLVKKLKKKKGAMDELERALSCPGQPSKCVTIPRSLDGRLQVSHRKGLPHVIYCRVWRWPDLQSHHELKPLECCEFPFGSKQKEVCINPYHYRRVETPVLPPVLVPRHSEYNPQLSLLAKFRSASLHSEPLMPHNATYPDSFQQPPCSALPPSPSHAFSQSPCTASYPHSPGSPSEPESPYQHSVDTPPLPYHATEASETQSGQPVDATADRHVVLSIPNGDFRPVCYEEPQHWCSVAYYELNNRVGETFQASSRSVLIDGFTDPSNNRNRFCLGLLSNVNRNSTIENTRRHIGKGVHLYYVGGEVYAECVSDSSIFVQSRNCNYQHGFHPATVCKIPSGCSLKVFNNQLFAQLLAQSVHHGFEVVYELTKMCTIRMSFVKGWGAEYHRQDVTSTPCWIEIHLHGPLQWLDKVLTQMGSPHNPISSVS
For N13S, the “effect of a mutation on the interaction” value was “with no effect”.

As to R361C, the “effect of a mutation on the interaction” value is “disrupting interaction strength”.

For Y353S, the “effect of a mutation on the interaction” value is “disrupting interaction strength”.

In a further assay the parent is B2. The note with it: with ccnd1_human CCND1, P24385.
Chain of ccnd1_human CCND1, P24385 (P24385 whole entry): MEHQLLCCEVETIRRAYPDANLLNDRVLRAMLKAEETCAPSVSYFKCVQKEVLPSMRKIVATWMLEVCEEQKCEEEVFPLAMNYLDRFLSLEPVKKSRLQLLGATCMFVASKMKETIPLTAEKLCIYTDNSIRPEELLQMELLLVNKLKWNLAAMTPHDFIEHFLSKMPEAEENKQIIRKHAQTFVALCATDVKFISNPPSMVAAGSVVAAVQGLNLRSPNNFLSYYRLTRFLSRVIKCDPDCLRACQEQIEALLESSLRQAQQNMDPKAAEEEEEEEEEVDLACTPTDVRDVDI
Take N41S: the “effect of a mutation on the interaction” value is “with no effect”.

Turning to R24H, the “effect of a mutation on the interaction” value is “with no effect”.

For the variant S52N, the “effect of a mutation on the interaction” value is “with no effect”.

In another assay the parent is B3. The note with it: with myd88_human MYD88, Q99836.
Chain of myd88_human MYD88, Q99836 (Q99836 whole entry): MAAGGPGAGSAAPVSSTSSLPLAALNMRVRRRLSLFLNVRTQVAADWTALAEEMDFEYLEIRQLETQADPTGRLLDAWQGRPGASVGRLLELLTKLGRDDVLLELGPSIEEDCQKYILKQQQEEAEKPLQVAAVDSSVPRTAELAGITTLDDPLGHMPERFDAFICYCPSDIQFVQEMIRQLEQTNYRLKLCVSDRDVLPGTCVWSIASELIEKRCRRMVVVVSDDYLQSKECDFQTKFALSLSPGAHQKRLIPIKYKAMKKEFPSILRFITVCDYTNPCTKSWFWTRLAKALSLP
With G298D, the “effect of a mutation on the interaction” value is listed as “disrupting interaction strength”.

Regarding R12C, the “effect of a mutation on the interaction” value is “disrupting interaction strength”.

A428T: the “effect of a mutation on the interaction” value is listed as “with no effect”.

Variants of B4 are the subject of another assay. The settings on record: with emd_human EMD.
With A12T, the “effect of a mutation on the interaction” value was “with no effect”.

Another assay covers variants of B5. The note with it: with cul3_human CUL3, Q13618.
Take R228G: the “effect of a mutation on the interaction” value was “disrupting interaction strength”.

Regarding C164F, the “effect of a mutation on the interaction” value was “disrupting interaction strength”.
